From US20240189352A1 (MAX DELBR CK CENTRUM F R MOLEKULARE MEDIZIN IN DER …, published 2024)

How the values were obtained:
[1] = biological target: HLA-A2-restricted GNAZ peptide … presented by HLA-A2 (human); assay: cell-based or functional assay
[2] = biological target: wild-type RAC1/2 peptide presented by HLA-A2 (peptide-loaded T2 cells) (human); assay: cell-based or functional assay

| Binder | IFNγ production of T001 TCR-transduced T cells upon coculture with peptide-loaded T2 cells (relative to PMA and ionomycin maximum) [1] [%] | IFNγ production by TCR-transduced T cells (relative to unmodified RAC2^P29L) [2] [%] |
| --- | --- | --- |
| RAC2-T001 TCR (TCR, V domains shown) V domain 1: GENVEQHPSTLSVQEGDSAVIKCTYSDSASNYFPWYKQELGKGPQLIIDIRSNVGEKKDQRIAVTLNKTAKHFSLHITETQPEDSAVYFCAASMGNAGNMLTFGGGTRLMVKP V domain 2: EPEVTQTPSHQVTQMGQEVILRCVPISNHLYFYWYRQILGQKVEFLVSFYNNEISEKSEIFDDQFSVERPDGSNFTLKIRSTKLEDSAMYFCASSETSGASYEQYFGPGTRLTVT | ~30 |  |
| RAC2-T002 TCR (TCR, V domains shown) V domain 1: AQSVTQLGSHVSVSEGALVLLRCNYSSSVPPYLFWYVQYPNQGLQLLLKYTTGATLVKGINGFEAEFKKSETSFHLTKPSAHMSDAAEYFCAVGANNLFFGTGTRLTVIP V domain 2: EPEVTQTPSHQVTQMGQEVILRCVPISNHLYFYWYRQILGQKVEFLVSFYNNEISEKSEIFDDQFSVERPDGSNFTLKIRSTKLEDSAMYFCASSEWRGSSYNEQFFGPGTRLTVL |  | 35 |
